Results on five molecules are retold here after patent EP4772538A1 (Beijing Wisdomab Biotechnology Co., Ltd, dated 2026).

Assay [1] deals with T1, HLA-A02 complex of … (MHC-P1-His), disulfide trap single-chain trimer (human).
T1 construct: also called recombinant protein MHC-P1
Nature of the assay: SPR, Biacore T200, method of Section 3.1; affinity for MHC-P1. Background: Surface plasmon resonance follows binding to a sensor surface in real time, without labels.

For assay [2], the target named is T2, HLA-A02/MAGE-A4 complex on the cell surface (MAGE-A4230-239 (…) presented by HLA-A02) (human). In words: cell-based or functional assay.
The target in assay [3] is T2, HLA-A02/MAGE-A4 complex on the cell …. Nature of the assay: cell-based or functional assay. This is another data set of the same source.
For assay [4] the target is unchanged. In words: cell-based or functional assay. The source holds these as a separate data set.
Assay [5] has the same target. Nature of the assay: cell-based or functional assay. This is another data set of the same source.
Assay [6] deals with T3, HLA-A02 complex of alanine-scanning mutant peptide V2A of MAGE-A4230-239 on pulsed T2 cells (human).
T3 construct: whole, on cells
Nature of the assay: flow cytometry on peptide-pulsed T2 cells, N18D10-Fc at 10 nM, anti-human IgG-FITC. For orientation: A flow cytometer gives signals particle by particle.

Assay [7] addresses T4, HLA-A02 complex of alanine-scanning mutant peptide V10A of MAGE-A4230-239 on pulsed T2 cells (human).
T4 construct: whole, on cells
Described as above.

Assay [8] concerns the target T2, HLA-A02/MAGE-A4 complex on the cell …. Described as above.
Assay [9] deals with T5, HLA-A02 complex of alanine-scanning mutant peptide G5A of MAGE-A4230-239 on pulsed T2 cells (human).
T5 construct: whole, on cells
Described as above.

Assay [10] deals with T6, HLA-A02 complex of alanine-scanning mutant peptide E7A of MAGE-A4230-239 on pulsed T2 cells (human).
T6 construct: whole, on cells
The description is as above.

Assay [11] deals with T7, HLA-A02 complex of alanine-scanning mutant peptide Y3A of MAGE-A4230-239 on pulsed T2 cells (human).
T7 construct: whole, on cells
The description is as above.

Assay [12] concerns the target T8, HLA-A02 complex of alanine-scanning mutant peptide R6A of MAGE-A4230-239 on pulsed T2 cells (human).
T8 construct: whole, on cells
The assay is described as above.

Assay [13] concerns the target T9, HLA-A02 complex of alanine-scanning mutant peptide H8A of MAGE-A4230-239 on pulsed T2 cells (human).
T9 construct: whole, on cells
The description is as above.

Assay [14] deals with T10, HLA-A02 complex of alanine-scanning mutant peptide T9A of MAGE-A4230-239 on pulsed T2 cells (human).
T10 construct: whole, on cells
The description is as above.

Assay [15] addresses T11, HLA-A02 complex of alanine-scanning mutant peptide D4A of MAGE-A4230-239 on pulsed T2 cells (human).
T11 construct: whole, on cells
The assay is described as above.

The target in assay [16] is T1, HLA-A02 complex of … (MHC-P1-His), …. Nature of the assay: SPR, Biacore T200; antibody captured by anti-human IgG (Fc), MHC-P1-His injected, 25°C, 1:1 model.
The target is the same in assay [17]. In words: SPR, Biacore T200, method of Section 3.1; antibody captured, MHC-P1-His injected.

B1: TCRm x CD3 bispecific antibody 2N18D10+IMCR (bispecific antibody)
chain 1: EVQLVESGGGSVQTGETLRLSCTVSGFTFDDSDMGWYRQAPGNECELVSTITTDGSTYYADSVKGRFTISQDNAKTTAYLQMDSLKPEDTAVYYCAADLPILRPTPCGDSVLYNYWGQGTQVTVSSGGGGSGGGGSGGGGSEVQLVESGGGSVQTGETLRLSCTVSGFTFDDSDMGWYRQAPGNECELVSTITTDGSTYYADSVKGRFTISQDNAKTTAYLQMDSLKPEDTAVYYCAADLPILRPTPCGDSVLYNYWGQGTQVTVSSASERKSSVECPPCPAPEFEGGPSVFLFPPKPKDTLMISRTPEVTCVVVDVSQEDPEVQFNWYVDGVEVHNAKTKPREEQYNSTYRVVSVLTVLHQDWLNGKEYKCKVSNKALPASIEKTISKAKGQPREPQVCTLPPSQEEMTKNQVSLSCAVKGFYPSDIAVEWESNGQPENNYKTTPPVLDSDGSFFLVSKLTVDKSRWQEGNVFSCSVMHEALHNHYTQKSLSLSPGK
chain 2: not shown
In the case of B1, in assay [1], binding was characterised by a dissociation constant (Kd) of 0.388 nM; the koff (commonly a measure of how fast the partners let go of each other) stood at 7.61e-05 s⁻¹; the kon – broadly, a measure of how fast the partners come together – worked out at 196000 M⁻¹ s⁻¹. Besides, in assay [2], the “EC50 of activation of Jurkat-Dual cells via antigen peptide-pulsed T2 cells (QUANTI-Luc)” value came out at 0.0145 nM. The “EC50 of killing of antigen peptide-pulsed T2 cells via PBMCs (LDH release)” value in assay [3] was found to be 2.36 pM. In assay [4], the “EC50 of activation of Jurkat-Dual cells via HLA-A02+/MAGE-A4+ tumor cells A375 (QUANTI-Luc)” value was 0.189 nM. For the same molecule, the “EC50 of killing of A375 cells (HLA-A02+/MAGE-A4+) via PBMCs (LDH release)” value (shortened to “EC50 of killing of A375 cells”) in [5] amounted to 0.0498 nM.

B2: anti-HLA-A02/MAGE-A4 complex and anti-CD3 control bispecific antibody 057G03 (bispecific antibody)
heavy 1: AQLVESGGGLVQPGGSLRLSCAASAYFSFKAMSWVRQAPGKGLEWVGSISPSGGSTYYNDNVLGRFTISRDNSKNTLYLQMNSLRAEDTAVYYCAKDVGFFDEWGQGTLVTVSSASTKGPSVFPLAPSSKSTSGGTAALGCLVEDYFPEPVTVSWNSGALTSGVHTFPAVLQSSGLYSLSSVVTVPSSSLGTQTYICNVNHKPSNTKVDEKVEPKSCDGGGGSGGGGSDIQMTQSPSSLSASVGDRVTITCRASQDIRNYLNWYQQKPGKAPKLLIYYTSRLESGVPSRFSGSGSGTDYTLTISSLQPEDFATYYCQQGNTLPWTFGQGTKVEIKSSASTKGPSVFPLAPSSKSTSGGTAALGCLVKDYFPEPVTVSWNSGALTSGVHTFPAVLQSSGLYSLSSVVTVPSSSLGTQTYICNVNHKPSNTKVDKRVERKSCVECPPCPAPEFEGGPSVFLFPPKPKDTLMISRTPEVTCVVVDVSHEDPEVKFNWYVDGVEVHNAKTKPREEQYNSTYRVVSVLTVLHQDWLNGKEYKCKVSNKALPASIEKTISKAKGQPREPQVYTLPPCREEMTKNQVSLWCLVKGFYPSDIAVEWESNGQPENNYKTTPPVLDSDGSFFLYSKLTVDKSRWQQGNVFSCSVMHEALHNHYTQKSLSLSPGK
heavy 2: AQLVESGGGLVQPGGSLRLSCAASAYFSFKAMSWVRQAPGKGLEWVGSISPSGGSTYYNDNVLGRFTISRDNSKNTLYLQMNSLRAEDTAVYYCAKDVGFFDEWGQGTLVTVSSASTKGPSVFPLAPSSKSTSGGTAALGCLVEDYFPEPVTVSWNSGALTSGVHTFPAVLQSSGLYSLSSVVTVPSSSLGTQTYICNVNHKPSNTKVDEKVERKSCVECPPCPAPEFEGGPSVFLFPPKPKDTLMISRTPEVTCVVVDVSQEDPEVQFNWYVDGVEVHNAKTKPREEQYNSTYRVVSVLTVLHQDWLNGKEYKCKVSNKALPASIEKTISKAKGQPREPQVCTLPPSQEEMTKNQVSLSCAVKGFYPSDIAVEWESNGQPENNYKTTPPVLDSDGSFFLVSKLTVDKSRWQEGNVFSCSVMHEALHNHYTQKSLSLSPGK
light: DIQMTQSPSSLSASVGDRVTITCRASQSISSYLAWYQQKPGKAPKLLIYDASIRDIGVPSRFSGSGSGTDFTLTISSLQPEDFATYYCQQYSSYPYTFGQGTKLEIKRTVAAPSVFIFPPSDRKLKSGTASVVCLLNNFYPREAKVQWKVDNALQSGNSQESVTEQDSKDSTYSLSSTLTLSKADYEKHKVYACEVTHQGLSSPVTKSFNRGEC
chain: EVQLVESGGGLVQPGGSLRLSCAASGYSFTGYTMNWVRQAPGKGLEWVALINPYKGVSTYNQKFKDRFTISVDKSKNTAYLQMNSLRAEDTAVYYCARSGYYGDSDWYFDVWGQGTLVTVSSASVAAPSVFIFPPSDEQLKSGTASVVCLLNNFYPREAKVQWKVDNALQSGNSQESVTEQDSKDSTYSLSSTLTLSKADYEKHKVYACEVTHQGLSSPVTKSFNRGEC
notes: also called 057D03 (variable regions)
Consider B2, for which, in assay [1], the Kd (as a rule, the free concentration of one partner at which half of the binding sites on the other are occupied at equilibrium, for simple one-to-one binding) is 33 nM; the koff turned out to be 0.0167 s⁻¹; the kon was 507000 M⁻¹ s⁻¹. Also, the “EC50 of activation of Jurkat-Dual cells via antigen peptide-pulsed T2 cells (QUANTI-Luc)” value in assay [2] worked out at 0.175 nM. Moreover, the “EC50 of killing of antigen peptide-pulsed T2 cells via PBMCs (LDH release)” value in [3] was determined as 4.53 pM. Also, the “EC50 of activation of Jurkat-Dual cells via HLA-A02+/MAGE-A4+ tumor cells A375 (QUANTI-Luc)” value in [4] amounted to 0.749 nM. For the same molecule, the “EC50 of killing of A375 cells” value in assay [5] was found to be 5.52 nM.

B3: anti-HLA-A02/MAGE-A4 complex TCRm antibody N18D10-Fc (Fc fusion)
chain: EVQLVESGGGSVQTGETLRLSCTVSGFTFDDSDMGWYRQAPGNECELVSTITTDGSTYYADSVKGRFTISQDNAKTTAYLQMDSLKPEDTAVYYCAADLPILRPTPCGDSVLYNYWGQGTQVTVSS
notes: Camel VHH fused to the Fc region of human IgG1; not shown: Fc region of human IgG1
Consider B3, for which the “binding relative to the original peptide” value in [6] is 41.1%; in assay [7], 0.35%; in assay [8], 100%; in [9], -1.02%; in assay [10], 27.4%; in assay [11], -0.12%. Besides, the “binding relative to the original peptide” value in assay [12] is -0.56%; in [13], -0.13%; in [14], 33.6%; in assay [15], 18.4%. Besides, binding in assay [16] was characterised by a dissociation constant (Kd) of 0.388 nM. Moreover, in assay [16], the koff is 7.18e-05 s⁻¹. In addition, the kon in assay [16] came to 185000 M⁻¹ s⁻¹.

B4: humanized anti-HLA-A02/MAGE-A4 complex TCRm antibody N18D10-h16-Fc (Fc fusion)
chain: QVQLVESGGGLVKPGGSLRLSCAVSGFTFDDSDMGWYRQAPGNECELVSTITTDGSTYYADSVKGRFTISQDNAKTSAYLQMNSLRAEDTAVYYCAADLPILRPTPCGDSVLYNYWGQGTTVTVSS
notes: Humanized VHH fused to the Fc region of human IgG1; not shown: Fc region of human IgG1
For B4, in assay [17], binding was characterised by a dissociation constant (Kd) of 0.467 nM, the koff came out at 7.61e-05 s⁻¹ and the kon amounted to 163000 M⁻¹ s⁻¹.

B5: TCRm x CD3 bispecific antibody 2N18D10-h16+IMCR (bispecific antibody)
chain 1: QVQLVESGGGLVKPGGSLRLSCAVSGFTFDDSDMGWYRQAPGNECELVSTITTDGSTYYADSVKGRFTISQDNAKTSAYLQMNSLRAEDTAVYYCAADLPILRPTPCGDSVLYNYWGQGTTVTVSSGGGGSGGGGSGGGGSQVQLVESGGGLVKPGGSLRLSCAVSGFTFDDSDMGWYRQAPGNECELVSTITTDGSTYYADSVKGRFTISQDNAKTSAYLQMNSLRAEDTAVYYCAADLPILRPTPCGDSVLYNYWGQGTTVTVSSASERKSSVECPPCPAPEFEGGPSVFLFPPKPKDTLMISRTPEVTCVVVDVSQEDPEVQFNWYVDGVEVHNAKTKPREEQYNSTYRVVSVLTVLHQDWLNGKEYKCKVSNKALPASIEKTISKAKGQPREPQVCTLPPSQEEMTKNQVSLSCAVKGFYPSDIAVEWESNGQPENNYKTTPPVLDSDGSFFLVSKLTVDKSRWQEGNVFSCSVMHEALHNHYTQKSLSLSPGK
chain 2: not shown
notes: also called 22N18D10-h16+IMCR
With B5, in [1], the affinity, expressed as Kd, was 0.43 nM; the koff came to 7.83e-05 s⁻¹; the kon was 182000 M⁻¹ s⁻¹. Also, the “EC50 of activation of Jurkat-Dual cells via antigen peptide-pulsed T2 cells (QUANTI-Luc)” value in assay [2] came out at 0.0143 nM. The “EC50 of killing of antigen peptide-pulsed T2 cells via PBMCs (LDH release)” value in assay [3] is 2.56 pM. In addition, the “EC50 of activation of Jurkat-Dual cells via HLA-A02+/MAGE-A4+ tumor cells A375 (QUANTI-Luc)” value in assay [4] came to 0.145 nM. In addition, the “EC50 of killing of A375 cells” value in [5] was determined as 0.0761 nM.
